# Laboratory results from US20250277199, “NOVEL CRISPR-CAS NUCLEASES FROM METAGENOMES” (Brain Biotech AG, published 2025).
# T1: BMC03 (uncultured bacterium (metagenome))
# T1 chain: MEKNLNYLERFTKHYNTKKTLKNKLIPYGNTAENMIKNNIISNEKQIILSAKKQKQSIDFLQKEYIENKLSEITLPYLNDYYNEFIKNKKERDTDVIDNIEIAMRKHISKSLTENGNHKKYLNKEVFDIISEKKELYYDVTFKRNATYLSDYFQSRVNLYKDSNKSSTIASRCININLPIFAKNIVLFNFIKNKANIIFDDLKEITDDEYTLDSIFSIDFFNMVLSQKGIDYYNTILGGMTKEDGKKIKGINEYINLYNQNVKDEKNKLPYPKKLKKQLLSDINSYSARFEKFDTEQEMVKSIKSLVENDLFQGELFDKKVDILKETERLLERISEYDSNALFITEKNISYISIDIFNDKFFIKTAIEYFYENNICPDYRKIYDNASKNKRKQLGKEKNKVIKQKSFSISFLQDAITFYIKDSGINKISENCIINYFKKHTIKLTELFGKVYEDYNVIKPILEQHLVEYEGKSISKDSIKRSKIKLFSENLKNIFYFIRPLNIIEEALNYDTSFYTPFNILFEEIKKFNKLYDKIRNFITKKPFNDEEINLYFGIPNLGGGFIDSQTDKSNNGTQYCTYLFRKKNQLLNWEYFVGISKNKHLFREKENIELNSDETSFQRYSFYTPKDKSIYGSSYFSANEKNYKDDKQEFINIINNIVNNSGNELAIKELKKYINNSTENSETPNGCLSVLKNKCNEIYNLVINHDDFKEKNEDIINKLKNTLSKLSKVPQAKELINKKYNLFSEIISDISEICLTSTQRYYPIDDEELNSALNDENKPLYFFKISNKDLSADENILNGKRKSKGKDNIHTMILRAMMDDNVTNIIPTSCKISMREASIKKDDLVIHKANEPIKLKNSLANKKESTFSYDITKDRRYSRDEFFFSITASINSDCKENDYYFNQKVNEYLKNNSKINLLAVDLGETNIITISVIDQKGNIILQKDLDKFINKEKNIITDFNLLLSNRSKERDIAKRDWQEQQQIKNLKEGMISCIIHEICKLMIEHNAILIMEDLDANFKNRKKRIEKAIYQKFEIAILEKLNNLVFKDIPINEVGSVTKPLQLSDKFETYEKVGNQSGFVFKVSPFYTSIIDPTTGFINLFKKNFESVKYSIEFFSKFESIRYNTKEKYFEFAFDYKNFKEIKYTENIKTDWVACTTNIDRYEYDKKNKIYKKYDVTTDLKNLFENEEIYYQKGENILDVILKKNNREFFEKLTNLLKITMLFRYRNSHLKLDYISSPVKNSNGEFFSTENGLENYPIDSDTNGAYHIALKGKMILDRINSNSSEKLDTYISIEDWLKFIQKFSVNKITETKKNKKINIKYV
# Molecular target: T1, BMC03
# Assay: cell_activity; PAM not stated; E. coli depletion, 30 C
# Outline: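 E. coli carrying arabinose-induced (0.2%) BMC nuclease, grown at 30° C., made electrocompetent and electroporated with 50-100 ng plasmid carrying gRNA against malQ. Transformants plated on selective M9-glucose agar with kanamycin/ampicillin (± nourseothricin), and growth scored after 48 h at 30° C.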
binder,measurement,value
malQ gRNA (BMC stem-loop + 24 nt spacer) ; malQ protospacer (ssRNA ; dsDNA) RNA: GAUUUCUACUAUUGUAGAUGUGGCGGUACGUUGAUGCAUCGCG DNA 1: GTGGCGGTACGTTGATGCATCGCG DNA 2: CGCGATGCATCAACGTACCGCCAC,activity,> 99.9 % colony reduction
